Experimental findings from patent US20050095616A1 are described below.

The target of series [1] is proteasome. Description: cell-based or functional assay.
For series [2], the system named is IκB(S32A, S36A)-Bla mutant fusion protein.
Series [3] addresses IκBα-beta-lactamase (IκBα-Bla) fusion protein, wild type (N-terminal IκBα and C-terminal Bla). Description: cell-based or functional assay.

In series [1], ALLN (peptide) showed an IC50 for inhibition of the TNFα-stimulated decrease in reporter levels of 5 µM.
As for IκB kinase (IKK), the “decrease in β-lactamase activity in response to TNFα treatment (10 ng/ml, 30 minutes)” value in series [2] was “the mutation of serines-32 and -36 abolished the decrease in β-lactamase activity in response to TNFα treatment”.
On to IκB kinase (IKK) (enzyme), for which the decrease in β-lactamase activity of Jurkat IκB-Bla cells after 10 ng/ml TNFα in series [3] came out at 2 fold.
